Reference: patent publication US20240067950A1, “MEANS AND METHODS FOR DETOXIFYING OCHRATOXIN A” (DSM Austria GmbH, priority 2020, published 2024)

B1: SEQ ID NO: 3: OTA-hydrolyzing polypeptide 3 of the present invention, recombinantly produced in E. coli (protein)
chain: MARDEIPADVKALIAQTVTALHGLAPPSAEFDDETQDAVFEAIDAIDDAMWDLNKKIHDHPELGFEEHKARANLVAALCKLGFTVTNPSSLPTAFVATYTHGHGGRTFGVDAEYDALRDVGHACGHNLIAVAAVAAAAGLKAALKARNISGTVKLIGSPAEEGGGGKVILLNEGVYDCLDACVMAHPEGGMIGDDYDGSAYVGGPASLARAGFEIEFHGRGAHAGAAPWLGINALDAAVQGYTAVSMLRQQLEPTMRVHGIIQGSEKWAQNIIPSYAKVSYSTRALDVKKTLELRDKTVDCFASAAKATGCTYDVTAPETEVYAELRNNQPLADAYADLMTKAFGQKIERRGMTTASTDFGNVTYHLPAIHPGFTIESETVNHTKGFTEAAGKKDAHERTMKVAKGLAMVGAKFLADDKFAKDVRKAFEKFKREVE
modifications: OTA hydrolyzing polypeptide 3
notes: OTA-hydrolyzing polypeptide 3 of the present invention, recombinantly produced in E. coli
B2: SEQ ID NO: 4: OTA-hydrolyzing polypeptide 4 of the present invention, recombinantly produced in E. coli (protein)
chain: MARDPLPADVRLLIRNNMASAHPQVPTIDGLDSKTQNDVFTAIDAINNDMRDLSLAIHENPELGFKEVKAHANLVKALSKLGFTITNPTSLETAFVATWSNGSGGRTFGFNAEYDALPGIGHACGHNLIAIVAVASAVGCKAAMEKQGISGTIKVIGSPAEEGGGGKIILFNEGVYDGLDACAMAHPGGGMPADGYDGQAPAEGKPASLARAGFIVDFVGKPAHAGAAPWMGVNAVDAAVLGYNGVSMLRQQLEPTVRVHGVIRGPNDWVNNIIPASSHVEYDVRAPDVKQAMAVRNKAIACFESAAHATGCSHTTQSKDKDIYAELRNSIRMAGVYADIMEEVFDQHIQRDGMTTASTDFGNITISACPAVHPMYLIETDGVNHTPEFTAGAATMDSHERSIKVAKGLALLGFKVLTDDVFAKKIKDEFEEQKKRLGA
modifications: OTA hydrolyzing polypeptide 4
notes: OTA-hydrolyzing polypeptide 4 of the present invention, recombinantly produced in E. coli
B3: SEQ ID NO: 2: OTA-hydrolyzing polypeptide 2 of the present invention, recombinantly produced in E. coli (protein)
chain: MARDEIPADVKALIAQTVTALHGLAPPSAEFDDETQDAVFEAIDAIDGAMWDLNKKIHDHPELGFKEHKARANLVAALCKLGFTVTNPSSLPTAFVATYTQGHGGRTFGVDAEYDALPEVGHACGHNLIAVAAVAAAAGLKAALKARNIAGTIKLIGSPAEEGGGGKVILLNEGVYDCLDACVMAHPEGGMIGNDYDGSAYVGGPASLARAGFEIEFHGRGAHAGAAPWLGINALDAAVQGYTAVSMLRQQLEPTMRVHGIIQGSEKWAQNIIPSYAKVSYSTRALDVKKTLELRDKTVDCFASAAKATGCTYELTAPETEVYAELRNNEPLADAYADLMTHAFGQKIERRGMTTASTDFGNVTYHVPAIHPGFTIESDTVNHTAGFTEAAGKKGAHERTMKVAKGLAMVGAKFLADDKFAKDVRKAFEKFKKGAQ
modifications: OTA hydrolyzing polypeptide 2
notes: OTA-hydrolyzing polypeptide 2 of the present invention, recombinantly produced in E. coli
B4: SEQ ID NO: 1: OTA-hydrolyzing polypeptide 1 of the present invention, recombinantly produced in E. coli (protein)
chain: MSDHLPADVRDLIRQTMSRLENLVPPSAAFDDETQDAVFEAIDSIDGDMLALNKAIHDNPELGFHEVKAHHHLVQALIKLGFAVTNPTSLPTAFVATWSHGSGGRTFGFNAEYDALPGVGHACGHNLIAIVAVASAAGLKAALKARNIPGTIKVIGSPAEEGGGGKVILLNEGAYDGIDACVMAHPEGGVPGIDDDGSAYTSGPATLARAGFSVELFGKAAHAGAAPWLGVNALDAAVQGYTAVSMLRQQIEPTMRVHGVFDYGKEKWVQNIIPAYAKVEYSTRALDVKSTLELRKKVISCFESAATATGCTHKVSAPETEVYAELRNNVTLADAYADFMTTAFGQKIGRVGITTASTDFGNVTYKMPAIHPGFHLISKGVNHTPEFADAAGTLDAHERAIKVAKGLAMLGAKFLQDDKFAKEVKRKFDEFKKEVGELKLTDNENEVQEVNGVMKQEHIAEQVDEIWL
modifications: OTA hydrolyzing polypeptide 1
notes: OTA-hydrolyzing polypeptide 1 of the present invention, recombinantly produced in E. coli

Legend:
[1] = OTA hydrolyzing activity assay (specific activity); format: biochemical; conditions: 37° C., 200 ng/mL OTA in 100 mM sodium phosphate buffer
Procedure: To determine the specific activity of recombinant target polypeptides produced e.g. as described in Example 1 above in units per liter (U/L), ochratoxin A (OTA) hydrolyzing activity assays were performed. One unit is defined as the amount of enzyme necessary for hydrolysis of 1 μmol or OTA in 1 min when using a starting OTA concentration of 0.495 μM.
OTA hydrolyzing activity assays were set up in a final volume of the reaction mixture of 200 μL, containing the recombinant enzyme preparation (preferably diluted to yield a volumetric activity of 1-10 mU/L), and 200 ng/mL OTA in 100 mM sodium phosphate buffer.
Specific activities were determined at pH 6.0 and pH 7.5. As soon as all components of the reaction mixture were mixed, OTA hydrolysis was followed at 37° C. on a fluorescence spectrophotometer (BioTek Synergy H1 MFD Multimode microplate reader) by following the reduction in fluorescence at ex/em 390 nm/450 nm.
For calculation of the specific activity, the initial linear part of the recorded fluorescence reduction curve was used. In addition to the fluorescence-based method described above, OTA hydrolysis was also determined by using the HPLC-MS method as described by Dellafiora et al. 2020, Toxins 12, 258, essentially confirming the fluorescence-based results. The specific activities for the polypeptides having amino acid sequences of SEQ ID NOs: 1-4 at different pH are shown in Table 1.

[2] = Thermostability assay (residual OTA hydrolyzing activity after 10 min heat incubation); format: physicochemical; conditions: 10 min incubation at 45, 55, 65, 75 or 85 ° C.; 0.1 mg/mL in 20 mM Tris-HCl pH 7.5; relative to 4° C. reference aliquot
Procedure: To determine the kinetic stability of the produced enzymes towards temperature, thermostability assays were performed. To this end, purified protein samples were diluted to a protein concentration of 0.1 mg/mL in 20 mM Tris-HCl buffer pH 7.5 and aliquots were incubated in a thermocycler for 10 min at either 45, 55, 65, 75 or 85 ° C. After this incubation, the aliquots were stored at 4° C. until further analysis. A reference aliquot was stored at 4° C. throughout the incubation. Subsequently, all aliquots were assayed for residual OTA hydrolyzing activity using the assay described in Example 2. Residual enzyme activities were calculated relative to the reference aliquot. The temperature range in which 50% of the initial activity was lost after the incubation, in relation to the reference aliquot was determined.

[3] = Piglet feeding trial, OTA in plasma and urine by HPLC-MS; format: in vivo, piglets; conditions: for OTA concentration, plasma samples, Day 14 / OTA concentration, urine samples, Day 14: piglets; for % OTA reduction, plasma samples / % OTA reduction, urine samples: day 14
Procedure: To verify the applicability of the produced enzymes as food or feed additive, piglet feeding trials were conducted. To this end, sufficient amounts of the polypeptide of SEQ ID NO: 1 were produced by cultivation of E. coli transformants in bioreactors. The cell broth was homogenized and centrifuged. The supernatant was concentrated, dried by lyophilization and formulated as a powder by grinding. The enzymatic activity of the thus obtained lyophilized powder was determined, and the powder was mixed with feed for the feeding trial as described in the following.
Five piglet groups were studied based on the following five experimental diet setups: 1) Base feed; 2) base feed+50 ppb OTA; 3) base feed+50 ppb OTA+169 mU of the enzyme of SEQ ID NO: 1 per kg of feed; 4) base feed+500 ppb OTA; 5) base feed+500 ppb OTA+169 mU of the enzyme of SEQ ID NO: 1 per kg of feed.
Each trial group consisted of four piglets weighing approximately 7-8 kg, who were coming out from weaning and adapted to solid diet before being fed the experimental diet as described above. The duration of the feeding trial (i.e. actual days of feeding the experimental diet) was fourteen days. Collectively each trial group consumed around 15 kg of feed. No piglets fell sick to any unexpected disease throughout the feeding trial. Urine and blood samples were collected on day 0, just before starting the experimental diet, and on day 14.
Extraction of OTA was performed from plasma and urine samples for subsequent analysis by HPLC-MS. 200 μL of sample was thoroughly mixed with 800 μL of extraction solution (containing 99% of ethyl acetate and 1% of phosphoric acid, 85%) followed by centrifugation at 19000×g for 5 min for phase separation. 50 μL of upper phase was diluted with 50 μL of acetonitrile, followed by HPLC-MS analysis. The H PLC-MS method as described by Dellafiora et al. 2020, Toxins 12, 258 was used to determine the changes in OTA concentration in the samples taken during the trial upon consumption of the experimental diets. The results are shown in Table 3 using the diet setup numbering as indicated above.

[4] = diet setup 3: base feed+50 ppb OTA+169 mU enzyme per kg of feed
[5] = diet setup 5: base feed+500 ppb OTA+169 mU enzyme per kg of feed

Row | Molecule | Specific OTA hydrolyzing activity ([1]; pH 6) [U/g] | Specific OTA hydrolyzing activity ([1]; pH 7.5) [U/g] | Temperature range in which 50% of the initial activity was lost [2] | OTA concentration, plasma samples, Day 14 [3, 4] | OTA concentration, urine samples, Day 14 [3, 4] | % OTA reduction, plasma samples [3, 4] [%] | % OTA reduction, urine samples [3, 4] [%] | OTA concentration, plasma samples, Day 14 [3, 5] | OTA concentration, urine samples, Day 14 [3, 5] | % OTA reduction, plasma samples [3, 5] [%] | % OTA reduction, urine samples [3, 5] [%]
1 | B1 | 0.63 | 1.44 | 55-65 °C |  |  |  |  |  |  |  | 
2 | B2 | 1.57 | 1.43 | 45-55 °C |  |  |  |  |  |  |  | 
3 | B3 | 3.53 | 11.01 | 65-75 °C |  |  |  |  |  |  |  | 
4 | B4 | 0.11 | 1.20 | 45-55 °C | 37 ± 3 | 0.00 | 9 | 100.0 | 350 ± 25 | 25.18 | 15 | 48.4
